Measured values reported in ChEMBL document CHEMBL3576833, “Design and Synthesis of Acetylenyl Benzamide Derivatives as Novel Glucokinase Activators for the Treatment of T2DM” (ACS Med Chem Lett, 2015).

Compound: COC[C@H](C)Oc1cc(C#Cc2cccc(N)c2)cc(C(=O)Nc2ccn(C)n2)c1
Experiment: Activation of recombinant human pancreatic glucokinase using 10 mM glucose as substrate assessed as enzyme Vmax by G6PDH coupled assay

B1: Hexokinase-4 (Homo sapiens), P35557 (protein)
chain: MLDDRARMEAAKKEKVEQILAEFQLQEEDLKKVMRRMQKEMDRGLRLETHEEASVKMLPTYVRSTPEGSEVGDFLSLDLGGTNFRVMLVKVGEGEEGQWSVKTKHQMYSIPEDAMTGTAEMLFDYISECISDFLDKHQMKHKKLPLGFTFSFPVRHEDIDKGILLNWTKGFKASGAEGNNVVGLLRDAIKRRGDFEMDVVAMVNDTVATMISCYYEDHQCEVGMIVGTGCNACYMEEMQNVELVEGDEGRMCVNTEWGAFGDSGELDEFLLEYDRLVDESSANPGQQLYEKLIGGKYMGELVRLVLLRLVDENLLFHGEASEQLRTRGAFETRFVSQVESDTGDRKQIYNILSTLGLRPSTTDCDIVRRACESVSTRAAHMCSAGLAGVINRMRESRSEDVMRITVGVDGSVYKLHPSFKERFHASVRRLTPSCEITFIESEEGSGRGAALVSAVACKKACMLGQ
Q: How did the Vmax turn out when B1 was run?
A: The Vmax was 126%.
